This note sets out measurements from EP2857035B1.

Experiment [1] has as its target HLA-A3 (human). Nature of the experiment: assembly assay, TAP-deficient cell lysate, W6/32 IP, IEF gel.
Experiment [2] has as its target HLA-A2 (human). Described as above.
In experiment [3] the target is HLA-A2 (human). In words: assembly assay (HLA stabilisation), T2 cell lysate, IP, IEF gel.
For experiment [4], the target named is HLA-A1 (human). Nature of the experiment: assembly assay, TAP-deficient cell lysate, W6/32 IP, IEF gel.

“Influenza A, nucleoprotein 265-273 (peptide)” displayed a C50 in experiment [1] of 0.1 µM.

With C1, HIV-1 pol476-484 (peptide), the results for the C50 in experiment [2] and in experiment [3] were 0.2 µM and 0.7 µM, respectively.

C1, Influenza A, PB1 591-599 (peptide) came in with a C50 in experiment [4] of 0.8 µM.
